Results taken from PMC5608694, “The crystal structure of the regulatory domain of the human sodium-driven chloride/bicarbonate exchanger” (Scientific Reports, 2017).

Molecular target: the molecule itself
Experiment: SEC; 1 mg of ntcNDCBE on Superdex 200 10/300 GL; eluted at 14.2 mL, compared with molecular weight standards

B1: truncated (ΔVR1) N-terminal cytoplasmic domain of human sodium-driven chloride/bicarbonate exchanger NDCBE-D (domain or fragment, UniProt Q2Y0W8-4 40-344, looked up)
chain: DTPSQRVQFILGTEEDEEHVPHELFTELDEICMKEGEDAEWKETARWLKFEEDVEDGGERWSKPYVATLSLHSLFELRSCLINGTVLLDMHANSIEEISDLILDQQELSSDLNDSMRVKVREALLKKHHHQNEKKRNNLIPIVRSFAEVGKKQSDPHLMDKHGQTVSPQSVPTTNLEVKNGVNCEHSPVDLSKVDLHFMKKIPTGAEASNVLVGEVDILDRPIVAFVRLSPAVLLSGLTEVPIPTRFLFILLGPVGKGQQYHEIGRSMATIMTDEIFHDVAYKAKERDDLLAGIDEFLDQVTVLP
notes: human NDCBE (SLC4A8) isoform D, N-terminal cytoplasmic core domain, amino acids 40-344 (made by mutagenesis from the 40-425 construct); numbers count on: isoform D (Q2Y0W8-4); Forms a homodimer in the crystal and in solution; Codon-optimised gene in pET-M11; His tag removed with TEV protease; also called ntcNDCBE; regulatory N-terminal domain of human NDCBE; source: E. coli BL21 Gold, purified …
  stoichiometry N: 2
